Residue numbers refer to the chain shown, from its start. Each block holds one binder with its values, some of them ahead of it.
Columns and labels:
C9ORF72-SMCR8^M2 complex = target: T1, C9ORF72-SMCR8^M2 complex (human, UniProt Q96LT7;Q8TEV9, T862A | F863A | H865A | L867A); assay: pull-down
T1 sequence 1: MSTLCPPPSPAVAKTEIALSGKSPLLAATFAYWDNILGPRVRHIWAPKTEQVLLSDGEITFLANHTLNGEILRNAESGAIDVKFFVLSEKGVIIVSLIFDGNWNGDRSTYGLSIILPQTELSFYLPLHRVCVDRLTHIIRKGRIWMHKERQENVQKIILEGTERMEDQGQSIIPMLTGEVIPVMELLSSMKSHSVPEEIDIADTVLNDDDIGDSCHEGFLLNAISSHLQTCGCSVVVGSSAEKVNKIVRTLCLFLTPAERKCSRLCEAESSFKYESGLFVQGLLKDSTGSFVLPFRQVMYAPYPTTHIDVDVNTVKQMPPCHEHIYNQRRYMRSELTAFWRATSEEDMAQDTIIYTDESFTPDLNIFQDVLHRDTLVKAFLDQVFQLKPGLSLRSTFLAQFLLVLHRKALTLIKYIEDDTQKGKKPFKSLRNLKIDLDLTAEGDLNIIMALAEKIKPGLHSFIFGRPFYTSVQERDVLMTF
T1 sequence 2: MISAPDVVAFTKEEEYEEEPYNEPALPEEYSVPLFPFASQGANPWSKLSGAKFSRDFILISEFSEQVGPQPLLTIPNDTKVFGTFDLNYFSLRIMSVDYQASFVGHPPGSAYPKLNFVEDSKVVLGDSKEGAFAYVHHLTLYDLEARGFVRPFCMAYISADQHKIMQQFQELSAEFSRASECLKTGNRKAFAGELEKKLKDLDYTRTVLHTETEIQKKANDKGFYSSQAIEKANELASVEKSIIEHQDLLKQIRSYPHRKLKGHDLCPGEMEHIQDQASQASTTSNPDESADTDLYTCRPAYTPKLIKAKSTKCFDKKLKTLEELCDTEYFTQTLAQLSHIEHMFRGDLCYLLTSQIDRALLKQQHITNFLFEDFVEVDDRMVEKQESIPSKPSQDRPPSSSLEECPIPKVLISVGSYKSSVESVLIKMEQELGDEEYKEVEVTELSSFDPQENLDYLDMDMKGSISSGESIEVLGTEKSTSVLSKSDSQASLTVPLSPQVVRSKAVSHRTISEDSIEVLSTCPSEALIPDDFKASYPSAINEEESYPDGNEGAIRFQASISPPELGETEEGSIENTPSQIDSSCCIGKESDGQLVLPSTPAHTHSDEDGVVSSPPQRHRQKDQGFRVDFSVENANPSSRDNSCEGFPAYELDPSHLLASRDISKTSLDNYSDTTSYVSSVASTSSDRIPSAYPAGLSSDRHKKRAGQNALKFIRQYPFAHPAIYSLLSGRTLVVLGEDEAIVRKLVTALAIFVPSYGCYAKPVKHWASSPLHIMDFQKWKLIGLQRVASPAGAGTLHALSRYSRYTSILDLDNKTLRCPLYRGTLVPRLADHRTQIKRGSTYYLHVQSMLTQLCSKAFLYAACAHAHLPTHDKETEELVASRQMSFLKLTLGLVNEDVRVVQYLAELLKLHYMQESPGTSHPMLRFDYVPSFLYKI

C9ORF72-SMCR8^M3 complex = target: T2, C9ORF72-SMCR8^M3 complex (human, UniProt Q96LT7;Q8TEV9, E907A | K910A | Y913A | M914A); assay: pull-down
T2 sequence 1: T1 sequence 1
T2 sequence 2: T1 sequence 2 with A862T, A863F, A865H, A867L, E907A, K910A, Y913A, M914A

C9ORF72-SMCR8 complex = target: T3, C9ORF72-SMCR8 complex (human, UniProt Q96LT7;Q8TEV9); assay: SEC
T3 sequence 1: T1 sequence 1
T3 sequence 2: T1 sequence 2 with A862T, A863F, A865H, A867L

AUC = target: the molecule itself; assay: AUC
C9ORF72 = target: T4, C9ORF72 (human, UniProt Q96LT7 1-481); assay: AUC
T4 sequence: T1 sequence 1

- binding result (C9ORF72-SMCR8^M2 complex): binds
- binding result (C9ORF72-SMCR8^M3 complex): binds
- stoichiometry N (C9ORF72-SMCR8 complex): 1
B1: WDR41 (WD40 repeat-containing protein 41) (natural protein)
chain: MLRWLIGGGREPQGLAEKSPLQTIGEEQTQNPYTELLVLKAHHDIVRFLVQLDDYRFASAGDDGIVVVWNAQTGEKLLELNGHTQKITAIITFPSLESCEEKNQLILTASADRTVIVWDGDTTRQVQRISCFQSTVKCLTVLQRLDVWLSGGNDLCVWNRKLDLLCKTSHLSDTGISALVEIPKNCVVAAVGKELIIFRLVAPTEGSLEWDILEVKRLLDHQDNILSLINVNDLSFVTGSHVGELIIWDALDWTMQAYERNFWDPSPQLDTQQEIKLCQKSNDISIHHFTCDEENVFAAVGRGLYVYSLQMKRVIACQKTAHDSNVLHVARLPNRQLISCSEDGSVRIWELREKQQLAAEPVPTGFFNMWGFGRVSKQASQPVKKQQENATSCSLELIGDLIGHSSSVEMFLYFEDHGLVTCSADHLIILWKNGERESGLRSLRLFQKLEENGDLYLAV

B2: C9ORF72-SMCR8-WDR41 complex (complex)
chain 1: T1 sequence 1
chain 2: T1 sequence 2 with A862T, A863F, A865H, A867L
chain 3: B1 chain
- stoichiometry N (AUC): 2

- binding result (C9ORF72): binds
B3: SMCR8 Longin domain (SMCR8^Longin), co-expressed with C9ORF72 (domain or fragment)
chain: MISAPDVVAFTKEEEYEEEPYNEPALPEEYSVPLFPFASQGANPWSKLSGAKFSRDFILISEFSEQVGPQPLLTIPNDTKVFGTFDLNYFSLRIMSVDYQASFVGHPPGSAYPKLNFVEDSKVVLGDSKEGAFAYVHHLTLYDLEARGFVRPFCMAYISADQHKIMQQFQELSAEFSRASECLKTGNRKAFAGELEKKLKDLDYTRTVLHTETEIQKKANDKGFYSSQAIEKANELASVEKSIIEHQDLLKQIRSYPHRKLKGHDLCPGEMEHIQDQASQASTTSNPDESADTDLYTCRPAYTPKLIKAKSTKCFDKKLKTLEELCDTEYFTQTLAQLSHIEHMFRGDL

— publication doi:10.1101/2020.04.16.045708 (bioRxiv, 2020)
